Assay type in all cases: cell-based, mouse
One assay concerns GFP-Bry ES cells / EBs. The assay is described as follows: Activin induction of brachyury (GFP) in serum-free EB cultures, FACS. As to the method:
A) FACS profile showing GFP expression in day 6 EBs differentiated in the presence of 100 ng/ml of activin. B) Kinetics of GFP induction in cultures containing 100 ng/ml of activin. Open circles are EB differentiated in the presence of activin, closed squares are EBs differentiated in absence of activin. C) RT-PCR expression analysis of indicated genes in day 6 EBs grown in the presence (+activin) or absence (−activin) of activin. Numbers indicate day of EB differentiation.
FIGS. 23A and 23B show the effects of different concentrations of activin on the developmental potential of EBs. A) GFP expression in day 7 EBs induced with different concentrations of activin. B) RT-PCR expression analysis of day 7 EBs induced with different concentrations of activin.
To further enrich for cells with endodermal potential, the effects of growth factors known to induce this cell population in other model systems were tested. Studies in Xenopus have shown that activin will induce both mesoderm and endoderm from ectoderm in culture. Of particular interest was the observation that activin behaved as a morphogen in this model in that it induced different cell types at different concentrations used. […] ES cells were differentiated for 2 days in Stem Pro 34 medium without serum. At this stage, the developing EBs were harvested and recultured in IMDM supplemented with serum replacement (serum free) and activin at a concentration of 100 ng/ml. EBs were harvested at different days and assayed for GFP^+ expression and expression of genes indicative of ectoderm, mesoderm and endoderm development. […] While the kinetics of GFP induction was delayed compared to EBs differentiated in serum, this concentration of activin did induce substantial numbers of brachyury positive cells (60%) by day 6 of differentiation. […] Induction of pdx-1 is of interest, as this gene is essential for pancreas development. Genes associated with hematopoietic development, such as GATA-1 and those indicative of neuroectoderm differentiation such as PAX6 were not induced by activin.
As little as 1 ng/ml of activin induced GFP^+ expression (10% of the total population) by 7 days of culture (FIG. 23A). The frequency of GFP^+ cells increased to 40% in cultures stimulated with 3 ng/ml and reached plateau levels of greater than 50% at 30 ng/ml. […] HNF3β, Sox17, Hex-1 were all induced in cultures stimulated with 10, 30, or 100 ng/ml of activin. Pdx-1 expression required the highest amount of activin and was induced best in EBs stimulated with 100 ng/ml. Neither GATA1 nor c-fms was expressed at any concentration of activin.

The subject of assay [1] is EBs (HNF3β, Hex1 expression). The assay is described as follows: Antibody staining for HNF3β and Hex1 in activin-induced EBs. As to the method: To better estimate the proportion of endodermal progenitors in the activin-induced EBs, cells from cultures stimulated with 100 ng/ml activin were stained with antibodies against HNF3β and Hex1. EBs from un-induced cultures were used as controls (Activin-). A significant portion of the activin induced population (estimated at 50-60% of total) expressed both HNF3β and Hex1. None of the cells in the un-induced EBs expressed these proteins.
To quantify the differential response of activin, cells stimulated with different concentrations of activin were adhered to coverslips and stained with the anti-HNF3β antibody. More than 50% of the entire EB population stimulated with 100 ng/ml of activin expressed HNF3β whereas only 10% of the cells stimulated with 3 ng/ml were positive.

Assay [2] has as its system GFP^+ hCD4^med cells from CD4-HNF/GFP-T ES cells. The assay is described as follows: Reaggregation of sorted GFP^+ hCD4^med cells in serum free media with DKK1 and/or activin. As to the method: FIGS. 35A and 35B depict, the effects of DKK1 and activin on EB differentiation. EBs differentiated and sorted as in FIG. 32 for GFP^+ hCD4^med were allowed to reaggregate in serum replacement containing media alone or with the addition of human DKK1 100 ng/ml, activin 100 ng/ml, or both factors together. […] FIG. 35B depicts endodermal gene expression by RT PCR. The sorted populations were treated as indicated above for 2 days, then plated on matrigel in serum free media without factors added. Gene expression was analyzed an additional 5 days after plating.
Nodal, a key molecule involved in mesoderm/endoderm induction in vivo, signals through the same receptors as activin. It is also known that Nodal as well as inhibitors for Wnt signaling are expressed preferentially in or around the anterior primitive streak. Considering that the endoderm forms from the anterior primitive streak, it is possible that nodal/activin signaling in combination with inhibition of Wnt signals induces endoderm formation. To test this hypothesis, CD4-HNF/GFP-T ES cells were differentiated for 3.25 days in serum and GFP^+ hCD4^med cells were sorted and reaggregated in serum free media with no factor, DKK1 (Wnt inhibitor), activin, or activin and DKK1. The effect of these culture conditions on hCD4-HNF3β and GFP-Bry levels were analyzed by flow cytometry (FIG. 35A). With serum free media alone, hCD4 expression was lost after 1 day reaggregation. […] To further test this idea, sorted cells reaggregated for two days in the culture conditions above were washed with serum free media without factors and plated onto martrigel in serum free media. After 5 days, the cultures were harvested and gene expression determined by RT PCR. […] These culture conditions have the potential to allow the large scale production of endodermal derived tissues such as the pancreas and liver.

B1: activin: growth factor purchased from R&D systems; induces mesoderm and endoderm (protein, UniProt P08476 311-426, looked up)
Inhibin beta A chain: GLECDGKVNICCKKQFFVSFKDIGWNDWIIAPSGYHANYCEGECPSHIAGTSGSSLSFHSTVINHYRMRGHSPFANLKSCCVPTKLRPMSMLYYDDGQNIIKKDIQNMIVEECGCS
Regarding B1, the “GFP^+ expression (% of the total population)” value in the assay with GFP-Bry ES cells / EBs (activin 1 ng/ml, 7 days of culture) is listed as 10%. Besides, the “frequency of GFP^+ cells” value with GFP-Bry ES cells / EBs (activin 3 ng/ml, day 7) was determined as 40%. Also, in the assay with GFP-Bry ES cells / EBs (activin 30 ng/ml, day 7), the “frequency of GFP^+ cells, plateau level” value is “greater than 50%”. Moreover, in the assay on GFP-Bry ES cells / EBs (activin 100 ng/ml, serum free, day 6 of differentiation), the “brachyury positive cells (GFP)” value amounted to 60%. For the same molecule, in assay [1] (activin 3 ng/ml, anti-HNF3β antibody), the “cells positive for HNF3β” value came out at 10%. The “entire EB population expressing HNF3β” value in assay [1] (activin 100 ng/ml, anti-HNF3β antibody) is recorded as “More than 50%”. Also, the “portion of population expressing both HNF3β and Hex1” value in assay [1] (activin 100 ng/ml, antibody staining, estimated) is recorded as 50-60 % of total. Besides, the “endoderm gene expression by RT PCR (pancreas, liver, intestine genes)” value in assay [2] (2 days treatment, then 5 days on matrigel without factors) was “Very low levels of just two of the genes, Pdxl and ALB”. In assay [2] (after 1 day reaggregation, DKK1 100 ng/ml, activin 100 ng/ml), the “hCD4 (HNF3β) level by flow cytometry” value was “retention of HNF3β levels similar to newly sorted cells”.

The values are drawn from patent US10428308B2, “Mesoderm and definitive endoderm cell populations” (Icahn School of Medicine at Mount Sinai, priority 2005, dated 2019).
